Residue numbers refer to the chain shown, from its start. One block for each binder: values may come before it.
Target: partially (~50%) activated 3954-1204-c225v5
Assay: sandwich ELISA in human plasma; clone 41 coated as capture, biotinylated detection antibody, streptavidin-HRP, OD 450 nm

- signal relative to the signal for intact 3954-1204-c225v5: 50 % lower
B1: antibody 58-1 (antibody, V domains shown)
VH: QSVEESGGRLVMPGGSLTLTCTVSGIDLSRYGMAWFRQAPGKGLKYIGAISSSGNEDYASWAIGRFTISKTSTTAELKMTSLTTEDTATYFCGRGWLSNNAYMWGPGTLVTVSS
VL: PVLTQTPTPVSAAVGGTVTINCQASQSIYNKNQLSWFQQKPGQPPKLLIHYASTLASGVSSRFKGSGSGTQFTLTISDVQCDDAATYYCLGDFSCSGVDCLVVGGGTEVVVEG

- signal relative to the signal for intact 3954-1204-c225v5: 50 % lower
B2: antibody 72-3 (antibody, V domains shown)
VH: B1 VH with R30H, K45E, A62P, I63K, A75V, E76T, A101V
VL: B1 VL with P1Q, T8P, P9S, F37L, L47V, V102S

Reference: patent US20170326260A1
